Data published in PMC7546529 (Nature microbiology, 2020).

Target: the molecule itself
Experiment: cryo-EM structure

B1: portal protein (BBRF1 gene-encoded portal complex) (natural protein)
chain: MFNMNVDESASGALGSSAIPVHPTPASVRLFEILQGKYAYVQGQTIYANLRNPGVFSRQVFTHLFKRAISHCTYDDVLHDWNKFEACIQKRWPSDDSCASRFRESTFESWSTTMKLTVRDLLTTNIYRVLHSRSVLSYERYVDWICATGMVPAVKKPITQELHSKIKSLRDRCVCRELGHERTIRSIGTELYEATKEIIESLNSTFIPQFTEVTIEYLPRSDEYVAYYCGRRIRLHVLFPPAIFAGTVTFDSPVQRLYQNIFMCYRTLEHAKICQLLNTAPLKAIVGHGGRDMYKDILAHLEQNSQRKDPKKELLNLLVKLSENKTISGVTDVVEEFITDASNNLVDRNRLFGQPGETAAQGLKKKVSNTVVKCLTDQINEQFDQINGLEKERELYLKKIRSMESQLQASLGPGGNNPAASAPAAVAAEAASVDILTGSTASAIEKLFNSPSASLGARVSGHNESILNSFVSQYIPPSREMTKDLTELWESELFNTFKLTPVVDNQGQRLYVRYSSDTISILLGPFTYLVAELSPVELVTDVYATLGIVEIIDELYRSSRLAIYIEDLGRKYCPASATGGDHGIRQAPSARGDTEPDHAKSKPARDPPPGAGS
stoichiometry N: 12
